Test results: doi:10.1101/788646

Biological target: SlCGH1, choloylglycine hydrolase homolog Shew_0681 from Shewanella loihica PV-4 (Shewanella loihica PV-4)
Experiment: SEC + other: MALDI-TOF-MS

SlCGH1, choloylglycine hydrolase homolog Shew_0681 from Shewanella loihica PV-4 (enzyme)
stoichiometry N: 2
